The target in data set [1] is Zif268 finger 2 variant REDV finger 2 alpha-helix variant REDV (full helix only in FIG. 1D) (Mus musculus) (UniProt P08046). Particulars: [none].
In data set [2] the target is Zif268 finger 2 variant RGPD finger 2 alpha-helix variant RGPD (full helix only in FIG. 1D) (Mus musculus) (UniProt P08046). Particulars: [none].
Data set [3] concerns the target Zif268 finger 2 variant LRHN finger 2 alpha-helix variant LRHN (full helix only in FIG. 1D) (Mus musculus) (UniProt P08046). Particulars: [none].
Data set [4] concerns the target Zif268 finger 2 variant KASN finger 2 alpha-helix variant KASN (full helix only in FIG. 1D) (Mus musculus) (UniProt P08046). Particulars: [none].
The target in data set [5] is Zif268 finger 2 variant REDV finger 2 alpha-helix variant REDV (full helix only in FIG. 1D) (Mus musculus) (UniProt P08046). The experiment in a line: ELONA. Particulars: [none]; apparent Kd, phage ELISA, PBS/Zn, RT. (In general: An ELISA detects its analyte on a solid surface through an enzyme-linked reagent.)
The target of data set [6] is Zif268 finger 2 variant LRHN finger 2 alpha-helix variant LRHN (full helix only in FIG. 1D) (Mus musculus) (UniProt P08046). The experiment in a line: ELONA. Particulars: [none]; apparent Kd, phage ELISA, PBS/Zn, RT.
Data set [7] concerns the target Zif268 finger 2 variant RGPD finger 2 alpha-helix variant RGPD (full helix only in FIG. 1D) (Mus musculus) (UniProt P08046). The experiment in a line: ELONA. Particulars: [none]; apparent Kd, phage ELISA, PBS/Zn, RT.
For data set [8], the target named is Zif268 finger 2 variant KASN finger 2 alpha-helix variant KASN (full helix only in FIG. 1D) (Mus musculus) (UniProt P08046). The experiment in a line: ELONA. To be noted: [none]; apparent Kd, phage ELISA, PBS/Zn, RT.
Data set [9] concerns the target Zif268 wildtype (three zinc fingers, phage displayed) (Mus musculus) (UniProt P08046). The experiment in a line: ELONA. To be noted: apparent non-equilibrium Kd, phage ELISA, all values scaled to this one (3.0 nM); PBS/Zn, milk, Tween 20, salmon testes DNA, RT.
Setting [10] is: apparent Kd interpolated from microarray signal 0.063.
Setting [11] is: apparent Kd interpolated from microarray signal 0.122.

pKd: −log10 of the molar value. Like-named read-outs stand apart in the source and are kept apart here.

Usually pKd stands for the Kd on a negative log10 scale, so that one unit is a factor of ten.

Take “TATATAGCGCCCGCGTATATATCAAGTCAATCGGTCC (double strand) [Zif268 site CCC]”: the values for the negative logarithm of the Kd (pKd) in data set [1] (setting [10]) and in data set [2] (apparent Kd interpolated from microarray signal 0.119) were 5.77 and 6.11, respectively.
For the sequence “TATATAGCGCCTGCGTATATATCAAGTCAATCGGTCC (double strand) [Zif268 site CCT]”, the pKd in data set [3] (apparent Kd interpolated from microarray signal 0.298) is 6.70; in data set [4] (apparent Kd interpolated from microarray signal 0.974), 6.60.
In the case of “TATATAGCGTACGCGTATATATCAAGTCAATCGGTCC (double strand) [Zif268 site TAC]”, the pKd in data set [3] (apparent Kd interpolated from microarray signal 0.329) was 6.77.
With “TATATAGCGGTGGCGTATATATCAAGTCAATCGGTCC (double strand) [Zif268 site GTG]”, the results for the pKd in data set [2] (apparent Kd interpolated from microarray signal 0.175) and in data set [5] were 6.21 and 7.96, respectively.
With “TATATAGCGGCAGCGTATATATCAAGTCAATCGGTCC (double strand) [Zif268 site GCA]”, the pKd in data set [1] (apparent Kd interpolated from microarray signal 0.108) was 5.89; in data set [2] (apparent Kd interpolated from microarray signal 0.216), 6.29.
As for “TATATAGCGACGGCGTATATATCAAGTCAATCGGTCC (double strand) [Zif268 site ACG]”, the results for the pKd in data set [1] (setting [10]) and in [2] (apparent Kd interpolated from microarray signal 0.143) were 5.77 and 6.16, respectively.
Consider “TATATAGCGCTCGCGTATATATCAAGTCAATCGGTCC (double strand) [Zif268 site CTC]”, for which the results for the pKd in [1] (apparent Kd interpolated from microarray signal 0.058) and in data set [2] (setting [11]) were 5.74 and 6.12, respectively.
As for “TATATAGCGGCTGCGTATATATCAAGTCAATCGGTCC (double strand) [Zif268 site GCT]”, the pKd in data set [1] (apparent Kd interpolated from microarray signal 0.077) is 5.80; in [2] (apparent Kd interpolated from microarray signal 0.406), 6.66.
Turning to “TATATAGCGATTGCGTATATATCAAGTCAATCGGTCC (double strand) [Zif268 site ATT]”, the pKd in data set [4] (apparent Kd interpolated from microarray signal 0.942) is 6.57; in [6] it was 6.62.
As for “TATATAGCGGCGGCGTATATATCAAGTCAATCGGTCC (double strand) [Zif268 site GCG]”, the pKd in data set [5] is 7.96; in data set [7], 7.77.
Turning to “TATATAGCGCGCGCGTATATATCAAGTCAATCGGTCC (double strand) [Zif268 site CGC]”, in [4] (apparent Kd interpolated from microarray signal 0.774), the pKd was 6.41.
On to “TATATAGCGAATGCGTATATATCAAGTCAATCGGTCC (double strand) [Zif268 site AAT]”, for which the figures for the pKd in data set [8] and in data set [6] were 6.60 and 6.96, respectively.
For the sequence “TATATAGCGCAGGCGTATATATCAAGTCAATCGGTCC (double strand) [Zif268 site CAG]”, the results for the pKd in [1] (apparent Kd interpolated from microarray signal 0.056) and in data set [2] (apparent Kd interpolated from microarray signal 0.105) were 5.74 and 6.09, respectively.
Regarding “TATATAGCGGCCGCGTATATATCAAGTCAATCGGTCC (double strand) [Zif268 site GCC]”, the pKd in [1] (apparent Kd interpolated from microarray signal 0.084) was 5.82; in data set [7] it was 6.22.
As to “TATATAGCGTGTGCGTATATATCAAGTCAATCGGTCC (double strand) [Zif268 site TGT]”, the pKd is 6.89 in data set [3] (apparent Kd interpolated from microarray signal 0.384) and 6.49 in data set [4] (apparent Kd interpolated from microarray signal 0.856).
Turning to “TATATAGCGAGTGCGTATATATCAAGTCAATCGGTCC (double strand) [Zif268 site AGT]”, the pKd was 7.03 in data set [3] (apparent Kd interpolated from microarray signal 0.449) and 6.49 in data set [4] (apparent Kd interpolated from microarray signal 0.862).
On to “TATATAGCGATGGCGTATATATCAAGTCAATCGGTCC (double strand) [Zif268 site ATG]”, for which the figures for the pKd in data set [1] (apparent Kd interpolated from microarray signal 0.069) and in data set [2] (apparent Kd interpolated from microarray signal 0.136) were 5.80 and 6.14, respectively.
For the sequence “TATATAGCGGAAGCGTATATATCAAGTCAATCGGTCC (double strand) [Zif268 site GAA]”, in data set [4] (apparent Kd interpolated from microarray signal 0.697), the pKd was 6.00.
Regarding “TATATAGCGACTGCGTATATATCAAGTCAATCGGTCC (double strand) [Zif268 site ACT]”, the figures for the pKd in [3] (apparent Kd interpolated from microarray signal 0.342) and in [4] (apparent Kd interpolated from microarray signal 0.949) were 6.80 and 6.59, respectively.
In the case of “TATATAGCGGAGGCGTATATATCAAGTCAATCGGTCC (double strand) [Zif268 site GAG]”, the pKd in data set [1] (apparent Kd interpolated from microarray signal 0.120) was 6.16; in [2] (apparent Kd interpolated from microarray signal 0.151), 6.17.
With “TATATAGCGCCGGCGTATATATCAAGTCAATCGGTCC (double strand) [Zif268 site CCG]”, the pKd in [5] was 6.06; in [7], 6.60.
With “TATATAGCGGGTGCGTATATATCAAGTCAATCGGTCC (double strand) [Zif268 site GGT]”, the pKd is 6.59 in [3] (apparent Kd interpolated from microarray signal 0.238) and 5.80 in data set [4] (apparent Kd interpolated from microarray signal 0.616).
On to “TATATAGCGTATGCGTATATATCAAGTCAATCGGTCC (double strand) [Zif268 site TAT]”, for which the pKd is 6.57 in [8] and 8.20 in data set [6].
For the sequence “TATATAGCGGGCGCGTATATATCAAGTCAATCGGTCC (double strand) [Zif268 site GGC]”, the pKd in data set [4] (apparent Kd interpolated from microarray signal 0.636) is 5.85.
In the case of “TATATAGCGGGGGCGTATATATCAAGTCAATCGGTCC (double strand) [Zif268 site GGG]”, the pKd in data set [1] (setting [11]) was 5.96; in data set [2] (apparent Kd interpolated from microarray signal 0.118), 6.11; in data set [4] (apparent Kd interpolated from microarray signal 0.612) it was 5.77.
For “TATATAGCGTGGGCGTATATATCAAGTCAATCGGTCC (double strand) [Zif268 site TGG]”, in [9], the pKd was 8.52.
Regarding “TATATAGCGCGTGCGTATATATCAAGTCAATCGGTCC (double strand) [Zif268 site CGT]”, the pKd in data set [3] (apparent Kd interpolated from microarray signal 0.330) was 6.77; in data set [4] (apparent Kd interpolated from microarray signal 0.848) it was 6.48.
Consider “TATATAGCGGACGCGTATATATCAAGTCAATCGGTCC (double strand) [Zif268 site GAC]”, for which the pKd in data set [4] (apparent Kd interpolated from microarray signal 0.652) is 5.89.
Consider “TATATAGCGTAGGCGTATATATCAAGTCAATCGGTCC (double strand) [Zif268 site TAG]”, for which the pKd in data set [8] was 6.41; in [6], 6.96.
Take “TATATAGCGCATGCGTATATATCAAGTCAATCGGTCC (double strand) [Zif268 site CAT]”: the pKd in data set [6] was 6.92.
For the sequence “TATATAGCGGATGCGTATATATCAAGTCAATCGGTCC (double strand) [Zif268 site GAT]”, in data set [3] (apparent Kd interpolated from microarray signal 0.500), the pKd is 7.14.
On to “TATATAGCGCGGGCGTATATATCAAGTCAATCGGTCC (double strand) [Zif268 site CGG]”, for which the pKd in [8] is 5.84.
Regarding “TATATAGCGTCTGCGTATATATCAAGTCAATCGGTCC (double strand) [Zif268 site TCT]”, the pKd in [1] (apparent Kd interpolated from microarray signal 0.083) was 5.82; in data set [2] (apparent Kd interpolated from microarray signal 0.146) it was 6.16.

Values taken from US20040203002.
